Assay results reported in PMC2289750 (The Journal of Cell Biology, 1992).

Target: T1, zyxin (chicken, UniProt Q04584 1-542, 125I (radioiodinated using Iodogen))
T1 sequence (looked up): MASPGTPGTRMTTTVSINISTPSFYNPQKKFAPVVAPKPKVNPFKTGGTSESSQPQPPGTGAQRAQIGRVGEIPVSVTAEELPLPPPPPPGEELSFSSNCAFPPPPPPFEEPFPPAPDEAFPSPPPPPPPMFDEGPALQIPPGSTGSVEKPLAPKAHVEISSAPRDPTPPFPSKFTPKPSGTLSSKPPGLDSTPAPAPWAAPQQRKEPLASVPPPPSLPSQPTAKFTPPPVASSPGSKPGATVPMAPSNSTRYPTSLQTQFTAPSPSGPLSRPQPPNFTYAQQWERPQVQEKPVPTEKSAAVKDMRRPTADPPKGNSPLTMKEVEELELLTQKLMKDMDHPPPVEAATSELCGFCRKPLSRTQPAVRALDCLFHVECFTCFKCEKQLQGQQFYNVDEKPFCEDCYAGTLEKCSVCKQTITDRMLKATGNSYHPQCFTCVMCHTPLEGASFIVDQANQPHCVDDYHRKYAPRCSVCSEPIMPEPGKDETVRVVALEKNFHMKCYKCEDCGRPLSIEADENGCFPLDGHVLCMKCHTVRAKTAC
Test: far-Western, overlay or dot blot

binding result: binds
B1: chicken Cysteine-Rich Protein (cCRP) (natural protein)
chain: MPNWGGGKKCGVCQKAVYFAEEVQCEGSSFHKSCFLCMVCKKNLDSTTVAVHGDEIYCKSCYGKKYGPKGYGYGMGAGTLSTDKGESLGIKYEEGQSHRPTNPNASRMAQKVGGSDGCPRCGQAVYAAEKVIGAGKSWHKSCFRCAKCGKSLESTTLADKDGEIYCKGCYAKNFGPKGFGFGQGAGALIHSQ
